From patent US20020048812A1, “Isolation and in vitro differentiation of conditionally immortalized murine olfactory receptor neurons” (priority 2000, published 2002)
“Also recorded” adds a separate entry of the source.

Tests used:
[1] = system: NST+ cells in the heterogeneous culture; experiment: Counting NST+ cells (anti-NST labeling) in heterogeneous olfactory cell cultures with growth factors; assay type: cell-based, mouse; conditions: for Normalized # of NST+ Cells: 100 ng.ml^−1
Protocol: FIG. 2A. Interferon causes a significant, dose-dependent increase in the number of NST+ cells in the heterogeneous culture, with an EC50 of 0.4 U.ml^−1. Cells were incubated at 33° C. and were stained with anti-NST and rhodamine-coupled secondary antibodies seven days after plating. Cell counts were obtained from ten randomly selected areas in each experiment. Data were normalized to the mean number of NST+ cells in the absence of interferon and each point represents the mean ±S.E.M from three experiments.
FIG. 2B. EGF (•) and NGF (□) both have mitogenic effects in permissive conditions over and above the effect of interferon. NST+ cells were counted as described in (A) and were normalized to baseline levels in the presence of interferon (40 U.ml^−1). […] Except for the presence of interferon (40 U.ml^−1), all experimental conditions were as in A.
To determine the optimal conditions for cell survival, growth, differentiation and maturation, cells were cultured in permissive and non-permissive conditions in the presence of interferon, EGF, NGF, BDNF and NT-3. […] The effects of EGF, NGF, BDNF and NT-3 on cell maturation in non-permissive culture conditions were
To keep the amount of expressed TAg to the minimum required for immortalization (Noble et al., 1995), heterozygous offspring from homozygous male H-2K^b-tsA58 transgenic and C57B1 female mice (Charles River Laboratories, Wilmington Mass., and Jackson Laboratory, Bar Harbor, Me., respectively) were used to generate the conditionally immortal neuronal cell culture. Cells were isolated in a procedure modified from a previously established technique (Ronnett et al., 1991). Briefly, post-natal day 1-3 animals were decapitated and the heads were sectioned longitudinally. The olfactory epithelium and nasal septum were removed and placed in an Eppendorf tube containing 500 μl culture medium. The culture medium consisted of Minimum Essential Medium in which the L-valine has been replaced by D-valine (MDV). This was supplemented with 10% fetal bovine serum (FBS), 4 mM glutamine, kanamycin (100 μg.ml^−1), gentamicin (50 U.ml^−1) and amphotericin B (2.5 μg.ml^−1; all from Gibco BRL, Gaithersburg, Md.). The MDV medium was chosen because fibroblasts lack D-amino acid oxidase and the reduction of L-valine inhibits fibroblast survival and growth (Gilbert et al., 1986). Tissue was centrifuged at low speed for two minutes and then most of the medium was removed. The cell pellet was chopped briefly with a pair of fine-point scissors before being resuspended in supplemented cell culture medium. The resultant cell clumps and cell suspension were plated out onto 2- or 4-chamber glass slides (Nunc, Naperville, Ill.) or plastic dishes (Fisher Scientific, Pittsburgh, Pa.). To enhance ORN adhesion, all cell culture materials were pretreated with laminin (0.125 mg.ml^−1 in serum-free media, Collaborative Biomedical Products, Bedford, Mass.) for at least 12 hours, prior to plating. Cells were maintained in culture at 33° C. (the permissive temperature for the SV40 TAg) and, to stimulate transcription of the transgene, the culture medium was supplemented with murine γ-interferon (40 U.ml^−1, Genzyme, Cambridge, Mass.). Provisionally, in permissive conditions, the cell culture medium was supplemented with epidermal growth factor (EGF, 20 ng.ml^−1, Gibco BRL) and 2.5 S nerve growth factor (NGF, 10 ng.ml^−1, Gibco BRL) before thorough characterizations of their effects were made in later experiments.
To determine optimum conditions for cell survival, growth, differentiation or maturation, numerous combinations of culture conditions were tested. These included i) removal of the olfactory epithelium from newborn, 4-week-old, and sexually mature animals, ii) subjecting tissue to digestion by trypsin (Gibco BRL, 0.5 g.l^−1 for 60 minutes at 37° C.), iii) addition of growth factors to the culture medium and iv) the use of diverse culture media. […]

[2] = system: olfactory marker protein (OMP); experiment: OMP expression by Western blot in cells in non-permissive conditions; assay type: cell-based, mouse; conditions: 37° C., heterogeneous cell cultures, 15 μg protein per lane
Protocol: FIG. 2C. Effects of EGF, NGF, BDNF and NT-3 on OMP expression as determined by Western blot. Cells were maintained in non-permissive conditions at 37° C. in the absence of growth factors (C) or in presence of EGF (E), NGF (N), BDNF (B) or NT-3 (3). Samples were isolated from the heterogeneous cell cultures and from olfactory tissue (T), and were separated on a SDS-polyacrylamide gel (15 μg protein per lane). OMP is a 19 kD protein and, in situ, is expressed only in mature olfactory receptor neurons. OMP was not detected in control cells (C), cultured in the absence of growth factors or in cells incubated in the presence of EGF.
assayed by Western blot detection of olfactory marker protein (OMP), a marker of mature olfactory receptor neurons (Margolis, 1988).
Cells were always maintained in permissive culture conditions except when attempts were made to obtain a differentiated phenotype through transgene inactivation. In this case, cells were incubated in non-permissive culture conditions, i.e. at 37° C. in γ-interferon-free media for seven days, before the effects of transgene inactivation were determined. The effects of EGF, NGF, BDNF and NT-3 in promoting cell maturation/differentiation were assessed and, based on those experiments, BDNF and NT-3 were routinely added to the culture medium for cells in non-permissive culture conditions. In both culture environments, the air was kept humidified and contained 5% CO2.
Cells were scraped into a cold isolation buffer containing 20 mM Na(N-tris[hydroxymethyl]methyl-2-aminoethanesulfonic acid) (Na TES), 10 mM mannitol and 1% Triton X-100 at pH 7.4. The isolation buffer was supplemented with phenylmethylsulfonyl fluoride (30 μg.ml^−1), leupeptin (2 μg.ml^−1), benzamidine (16 μg.ml^'1), pepstatin (2 μg.ml^−1), and lima bean trypsin inhibitor (50 μg.ml^−1) to prevent protease activity. After five freeze/thaw cycles, cell extracts were centrifuged at 2,000 g for 5 minutes to pellet nuclei and cell debris. […]

B1: NT-3: neurotrophin-3 (Peprotech) (protein, UniProt P20783 139-257, looked up)
Neurotrophin-3: YAEHKSHRGEYSVCDSESLWVTDKSSAIDIRGHQVTVLGEIKTGNSPVKQYFYETRCKEARPVKNGCRGIDDKHWNSQCKTSQTYVRALTSENNKLVGWRWIRIDTSCVCALSRKIGRT
modifications: Neurotrophin-3
[1]; 33° C., in the presence of 40 U.ml^−1 interferon, normalized to that point
  Normalized # of NST+ Cells: 0.8 ± 0.1
[1]; 37° C.
  Normalized # of NST+ Cells: 1.4 ± 0.1
[1]; permissive conditions (33° C.)
  Effect on the number of NST+ cells (in words): no effect
[2]
  OMP expression detected by Western blot (in words): significant expression of OMP could be observed; also recorded: greater from cells incubated with NT-3 than with BDNF; also recorded: most readily detected
